The values that follow come from patent publication US8604172B2, “Humanized antibody compositions and methods for binding lysophosphatidic acid” (Lpath, Inc., priority 2009, dated 2013).

Marks after values point to notes of the source that are not given here.

Assay [1] can be described thus: Competition ELISA (18:1 LPA coat), competitor 20:4 LPA. The class given is binding. The following applies: maximum inhibition. The method, then:
(§1) Many isoforms of LPA have been identified to be biologically active and it is preferable that the mAb recognize all of them to some extent to be of therapeutic relevance. The specificity of the anti-LPA mAbs was evaluated utilizing a competition assay in which the competitor lipid was added to the antibody-immobilized lipid mixture.
(§2) Competition ELISA assays were performed with the anti-LPA mAbs to assess their specificity. 18:1 LPA was captured on ELISA plates. Each competitor lipid (up to 10 uM) was serially diluted in BSA (1 mg/ml)-PBS and then incubated with the mAbs (3 nM). Mixtures were then transferred to LPA coated wells and the amount of bound antibody was measured with a secondary antibody. Data are normalized to maximum signal (A450) and are expressed as percent inhibition. Assays were performed in triplicate. IC50: Half maximum inhibition concentration; MI: Maximum inhibition (% of binding in the absence of inhibitor); - - -: not estimated because of weak inhibition. A high inhibition result indicates recognition of the competitor lipid by the antibody.

A short description of assay [2]: Competition ELISA (18:1 LPA coat), competitor 16:0 LPA. The class given is binding. The following applies: maximum inhibition. As to the method:
as §1, §2
(In general: ELISA stands for enzyme-linked immunosorbent assay.)

Assay [3] relates to SKOV3 cells. The assay can be described thus: Taxol-induced apoptosis / caspase activity in SKOV3 cells. In kind it is cell-based, human. As to the method:
The ability of LPA to protect ovarian tumor cells against apoptosis when exposed to clinically-relevant levels of the chemotherapeutic agent, paclitaxel (Taxol) was investigated. […] LPA protected SKOV3 cells from Taxol-induced apoptosis. Apoptosis was assayed by measurement of the caspase activity as recommended by the manufacturer (Promega). As anticipated, LPA protected most of the cancer cell lines tested from taxol-induced cell death. […] Moreover, the anti-LPA antibody was able to remove the protection provided by serum. Serum is estimated to contain about 5-20 uM LPA. […] Taxol-induced caspase activation was enhanced by the addition of LT3000 to the culture medium.

Assay [4] deals with neovascularization. The assay can be described thus: Classical angiogenesis models. In kind it is in vivo. The following applies: two classical angiogenesis models.
The nature of assay [5]: LPA competition ELISA (C18:0 LPA coat). The following applies: LPC, PA, 14:0 and 18:1 LPA, cPA, PC. The class given is binding. The method, then:
The specificity of the humanized antibody was determined by competition ELISA. C18:0 LPA coating material was diluted to 0.33 ug/ml with carbonate buffer (100 mM NaHCO3, 33.6 mM Na2CO3, pH 9.5). Plates were coated with 100 ul/well of coating solution and incubated at 37° C. for 1 hour. The plates were washed 4 times with PBS ([…], pH 7.4) and blocked with 150 ul/well of PBS, 1% BSA, 0.1% tween-20 for 1 h at room temperature. The humanized, anti-LPA antibodies were tested against lipid competitors (14:0 LPA (Avanti, Cat. No 857120), 18:1 LPA (Avanti, Cat. No 857130), 18:1 LPC (Avanti, Cat. No 845875), cLPA (Avanti, Cat. No 857328), 18:1 PA (Avanti, Cat. No 840875), PC (Avanti, Cat. No 850454) at 5 uM, 2.5 uM, 1.25 uM, 0.625 uM, and 0.0 uM. The antibody was diluted to 0.5 ug/ml in PBS, 0.1% tween-20 and combined with the lipid samples at a 1:3 ratio of antibody to sample on a non-binding plate. The plates were washed 4 times with PBS and incubated for 1 hour at room temperature with 100 ul/well of the primary antibody/lipid complex. Next the plates were washed 4 times with PBS and incubated for 1 h at room temperature with 100 […] of HRP-conjugated goat anti-human antibody diluted 1:20,000 in PBS, 1% BSA, 0.1% tween-20. […] The optical density (OD) was measured at 450 nm using a Thermo Multiskan EX. […]

Assay [6] deals with SKOV3 cell invasion. The assay can be described thus: SKOV3 invasion assay. The following applies: Lpathomab (15 mg/mL); 2 μM 14:0 LPA; n = 2. In kind it is cell-based, human.
For assay [7], the system named is angiogenesis in Caki-1-containing plugs. The assay can be described thus: Matrigel Plug assay with Caki-1 cells, CD31 staining. In kind it is in vivo, nude (NCr Nu/Nu) female mice. The note with it: 10 mg/kg every 3 days; vs saline; p<0.05. As to the method:
One of the anti-LPA mAbs (B7) was tested for its ability to mitigate angiogenesis in vivo using the Matrigel Plug assay. This assay utilizes Matrigel, a proprietary mixture of tumor remnants including basement membranes derived from murine tumors. When Matrigel, or its derivate growth factor-reduced (GFR) Matrigel, is injected sc into an animal, it solidifies and forms a ‘plug.’ If pro-angiogenic factors are mixed with the matrix prior to placement, the plug will be invaded by vascular endothelial cells which eventually form blood vessels. Matrigel can be prepared either alone or mixed with recombinant growth factors (bFGF, VEGF), or tumor cells and then injected sc in the flanks of 6-week old nude (NCr Nu/Nu) female mice. In this example, Caki-1 (renal carcinoma) cells were introduced inside the Matrigel and are producing sufficient levels of VEGF and/or IL8 and LPA. Matrigel plugs were prepared containing 5×10^5 Caki-1 cells from mice treated with saline or with 10 mg/kg of anti-LPA mAb-B7, every 3 days starting 1 day prior to Matrigel implantation. Plugs were stained for endothelial CD31, followed by quantitation of the micro-vasculature formed in the plugs. Quantitation data were means+/−SEM of at least 16 fields/section from 3 plugs.

Assay [8] concerns B16-F10 murine melanoma. The assay can be described thus: B16-F10 murine melanoma experimental lung metastasis. Details: species or system C57BL/6 mice. The following applies: mouse, in vivo. As to the method: Study: The highly metastatic murine melanoma (B16-F10) was used to examine the therapeutic effect of anti-LPA mAbs on metastasis in vivo. […] 4 week old female (C57BL/6) mice received an injection of B16-F10 murine melanoma tumor cells (100 uL of 5×10^4 cells/animal) via the tail vein. Mice (10 per group) were administered 25 mg/kg of the anti-LPA mAb (either B3 or B7) or saline every three days by i.p. injection. After 18 days, lungs were harvested and analyzed. The pulmonary organs are the preferred metastatic site of the melanoma cells, and were therefore closely evaluated for metastatic nodules. The lungs were inflated with 10% buffered formalin via the trachea, in order to inflate and fix simultaneously, so that even small foci could be detectable on histological examination. Lungs were separated into five lobes and tumors were categorized by dimension (large >5 mm; medium 1-4 mm; small <1 mm) and counted under a dissecting microscope. […] For animals treated with mAb B3, large tumors were reduced by 21%, medium tumors by 17% and small tumors by 22%. Statistical analysis by student's T-test gave a p<0.05 for number of small tumors in animals treated with mAb B3 vs saline.

B1: LT3000: Murine anti-LPA monoclonal antibody clone B7, IgG1k, renamed Lpathomab, also known as LT3000; hybridoma 504B7.1, ATCC PTA-8420 (antibody, V domains shown)
VH: QVQLQQSGAELVRPGTSVKVSCKASGYGFINYLIEWIKQRPGQGLEWIGLINPGSDYTNYNENFKGKATLTADKSSSTAYMHLSSLTSEDSAVYFCARRFGYYGSGNYFDYWGQGTTLTVSS
VL: DVVMTQTPLSLPVSLGDQASISCTSGQSLVHINGNTYLHWYLQKPGQSPKLLIYKVSNLFSGVPDRFSGSGSGTDFTLKISRVEAEDLGVYFCSQSTHFPFTFGTGTKLEIK
As to B1, the “MI, 20:4 LPA” value in assay [1] was 67%. Besides, the “MI, 16:0 LPA” value in assay [2] was determined as 62.9%. In assay [3] (LPA responsive cells, 24 h), the “LPA protection from death induced by chemotherapeutic agent (Taxol)” value is listed as “blocked the ability of LPA to protect cells from death”. Further, the “Apoptosis, % Induction (over LPA + TAXOL taken as 100)” value in assay [3] (Lpathomab 150 μg/mL, 1 μM Taxol, 1 μM 18:1 LPA, n = 1) was 79%. For the same molecule, the Taxol-induced caspase activation entry in assay [3] (SKOV3, serum-containing culture medium) is “enhanced”. For the same molecule, in assay [4], the neovascularization result is given as “inhibited”. The cross-reactivity entry in assay [5] is “no cross-reactivity”. Moreover, the “Invasion, % Inhibition (over LPA taken as 100)” value in assay [6] is reported as 95* %. Also, the reduction in angiogenesis entry in assay [7] is on record as “greater than 50%”. The “metastatic spread of B16-F10 cells to lungs” value in assay [8] is listed as “reduced”.
